For test [1], the target named is T1, Human serum albumin (HSA; Sigma-Aldrich Cat No. A8763) (human, UniProt P02768 25-609). Description: SPR Biacore 8K+, HSA on CM5 chip, pH 7.4, 1:1 fit.
The target in test [2] is T2, Mouse serum albumin (MSA; Albumin Bioscience Cat No. 2601) (mouse, UniProt P07724 25-608). Description: SPR Biacore 8K+, MSA on CM5 chip, pH 7.4, 1:1 fit. (In general: In SPR one partner is held on a chip, and binding of the other changes the refractive index at the surface.)
The target in test [3] is T3, Human FcRn (biotinylated human FcRn) (human, UniProt P61769 21-119).
T3 construct: Biotinylated human FcRn captured on a Series S Sensor Chip SA; also called human neonatal Fc receptor; hFcRn
In words: SPR Biacore 8K+, biotinylated hFcRn on SA chip (~1000-2000 RU), pH 6.0, no HSA, bivalent analyte fit (KD1).

Test [4] addresses T3, Human FcRn (biotinylated human FcRn). Description: SPR Biacore 8K+, biotinylated hFcRn on SA chip (~1000-2000 RU), pH 6.0, with 30 uM HSA, bivalent analyte fit (kd1); remark: no good fit possible.
For test [5], the target named is T2, Mouse serum albumin (MSA; Albumin …). Description: SPR Biacore 8K+, MSA on CM5 chip, pH 6.0, 1:1 fit.
The target of test [6] is T3, Human FcRn (biotinylated human FcRn). In words: SPR Biacore 8K+, biotinylated hFcRn on SA chip (~1000-2000 RU), pH 6.0, no HSA, 1:1 fit.
For test [7] the target is unchanged. In words: SPR Biacore 8K+, biotinylated hFcRn on SA chip (~600 RU), pH 6.0, bivalent analyte fit (kd1).
Test [8] shares this target. Description: SPR Biacore 8K+, biotinylated hFcRn on SA chip (~600 RU), pH 6.0, bivalent analyte fit (KD1).
For test [9] the target is unchanged. Description: SPR Biacore 8K+, biotinylated hFcRn on SA chip (~1000-2000 RU), pH 6.0, no HSA, bivalent analyte fit (ka1).
For test [10] the target is unchanged. Description: SPR Biacore 8K+, biotinylated hFcRn on SA chip (~1000-2000 RU), pH 6.0, no HSA, bivalent analyte fit (kd1).
Test [11] shares this target. In words: SPR Biacore 8K+, biotinylated hFcRn on SA chip (~600 RU), pH 6.0, bivalent analyte fit.
Test [12] has the same target. In words: SPR Biacore 8K+, biotinylated hFcRn on SA chip (~600 RU), pH 6.0, bivalent analyte fit (ka1).
Test [13] has the same target. In words: SPR Biacore 8K+, biotinylated hFcRn on SA chip (~1000-2000 RU), pH 6.0, no HSA, bivalent analyte fit.
The target of test [14] is T1, Human serum albumin (HSA; Sigma-Aldrich …). In words: SPR Biacore 8K+, HSA on CM5 chip, pH 6.0, 1:1 fit.
For test [15], the target named is T3, Human FcRn (biotinylated human FcRn). In words: SPR Biacore 8K+, biotinylated hFcRn on SA chip (~700 RU), pH 6.0, bivalent analyte fit (ka1).
Test [16] has the same target. Description: SPR Biacore 8K+, biotinylated hFcRn on SA chip (~700 RU), pH 6.0, bivalent analyte fit (KD1).
The target is the same in test [17]. In words: SPR Biacore 8K+, biotinylated hFcRn on SA chip (~700 RU), pH 6.0, bivalent analyte fit.
For test [18] the target is unchanged. In words: SPR Biacore 8K+, biotinylated hFcRn on SA chip (~700 RU), pH 6.0, bivalent analyte fit (kd1).
Test [19] addresses T2, Mouse serum albumin (MSA; Albumin …). Description: SPR Biacore 8K+, MSA on C1 chip, pH 7.4, 1:1 fit (off-rate only).
Test [20] deals with T1, Human serum albumin (HSA; Sigma-Aldrich …). Description: SPR Biacore 8K+, HSA on C1 chip, pH 7.4, 1:1 fit.
Test [21] deals with T3, Human FcRn (biotinylated human FcRn). Description: SPR Biacore 8K+, biotinylated hFcRn on SA chip (~1000-2000 RU), pH 6.0, with 30 uM HSA, bivalent analyte fit.
Test [22] shares this target. In words: SPR Biacore 8K+, biotinylated hFcRn on SA chip (~1000-2000 RU), pH 6.0, with 30 uM HSA, bivalent analyte fit (kd1).
The target is the same in test [23]. In words: SPR Biacore 8K+, biotinylated hFcRn on SA chip (~1000-2000 RU), pH 6.0, with 30 uM HSA, bivalent analyte fit (KD1).
Test [24] shares this target. In words: SPR Biacore 8K+, biotinylated hFcRn on SA chip (~1000-2000 RU), pH 6.0, with 30 uM HSA, bivalent analyte fit (ka1).

Here are results for three molecules from US20240368250A1 (Ablynx, published 2024).

B1: TP006 (Fc fusion)
chain 1: DVQLVESGGGLVQPGGSLRLSCAASGLTFSTNPMYWYRQAPGKQRELVASISSRGITNYADSVKGRFTISRDNSKNTVYLQMNSLRPEDTAVYYCRLASLSSGTVYWGQGTLVTVSSDKTHTCPPCPAPEAAGGPSVFLFPPKPKDTLMISRTPEVTCVVVDVSQEDPEVQFNWYVDGVEVHNAKTKPREEQFNSTYRVVSVLTVLHQDWLNGKEYKCKVSNKGLPSSIEKTISKAKGQPREPQVYTLPPCQEEMTKNQVSLWCLVKGFYPSDIAVEWESNGQPENNYKTTPPVLDSDGSFFLYSKLTVDKSRWQEGNVFSCSVMHEALHNHYTQKSLSLSLGGGGGSGGGGSGGGGSGGGGSGGGGSGGGGSGGGGSEVQLVESGGGVVQPGGSLRLSCAASGFTFRSFGMSWVRQAPGKGPEWVSSISGSGSDTLYADSVKGRFTISRDNSKNTLYLQMNSLRPEDTALYYCTIGGSLSRSSQGTLVTVSS
chain 2: DKTHTCPPCPAPEAAGGPSVFLFPPKPKDTLMISRTPEVTCVVVDVSQEDPEVQFNWYVDGVEVHNAKTKPREEQFNSTYRVVSVLTVLHQDWLNGKEYKCKVSNKGLPSSIEKTISKAKGQPREPQVCTLPPSQEEMTKNQVSLSCAVKGFYPSDIAVEWESNGQPENNYKTTPPVLDSDGSFFLVSKLTVDKSRWQEGNVFSCSVMHEALHNHYTQKSLSLSLG
notes: IgG4 FALA Fc (knob-in-hole); irrelevant ISVD N-terminal and ALB23002 C-terminal (35GS) on chain 1; chain 2 is hinge-Fc only
What is called koff is the rate constant with which the complex falls apart. In general, kon refers to the second-order rate constant of association. Turning to B1, the Kd in test [1] amounted to 67 nM; in test [2], 120 nM; in test [3] it was 290 nM; in test [5], 84 nM; in test [6], 18 nM; in test [8], 426 nM. This molecule also showed a Kd in test [14] of 32 nM. For the same molecule, the koff in test [1] was 0.0017 s⁻¹; in [2] it was 0.0028 s⁻¹; in test [4] it was 0.0016 s⁻¹; in [5] it was 0.0026 s⁻¹; in test [6], 0.083 s⁻¹; in test [7], 0.00402 s⁻¹. For the same molecule, the dissociation rate constant (koff) in test [10] came out at 0.042 s⁻¹; in test [14], 0.0017 s⁻¹. The kon in test [1] was 26000 M⁻¹ s⁻¹; in [2] it was 23000 M⁻¹ s⁻¹; in test [5] it was 31000 M⁻¹ s⁻¹; in test [6] it was 4.5e+06 M⁻¹ s⁻¹; in test [9], 140000 M⁻¹ s⁻¹; in [12] it was 9440 M⁻¹ s⁻¹. The molecule further showed a kon in test [14] of 54000 M⁻¹ s⁻¹. The ka2 is 10.7 1/RUs in [11] and 0.00013 1/RUs in test [13]. The kd2 came out at 71.9 s⁻¹ in test [11] and 0.002 s⁻¹ in test [13].

B2: T-0263-00_TP121 (antibody, human IgG1, kappa)
heavy 1: not shown
heavy 2: EVQLVESGGGLVQPGGSLRLSCAASGFNIRDTYIHWVRQAPGKGLEWVARIYPTQGYTRYADSVKGRFTISADTSKNTAYLQMNSLRAEDTAVYYCSRWGGEGFYAMDYWGQGTLVTVSSASTKGPSVFPLAPSSKSTSGGTAALGCLVKDYFPEPVTVSWNSGALTSGVHTFPAVLQSSGLYSLSSVVTVPSSSLGTQTYICNVNHKPSNTKVDKKVEPKSCDKTHTCPPCPAPELLGGPSVFLFPPKPKDTLMISRTPEVTCVVVDVSHEDPEVKFNWYVDGVEVHNAKTKPREEQYNSTYRVVSVLTVLHQDWLNGKEYKCKVSNKALPAPIEKTISKAKGQPREPQVCTLPPSRDELTKNQVSLSCAVKGFYPSDIAVEWESNGQPENNYKTTPPVLDSDGSFFLVSKLTVDKSRWQQGNVFSCSVMHEALHNRFTQKSLSLSPG
light: not shown
notes: Full-length IgG1 knob-in-hole with one C-terminal ALB23002-A (9GS) on chain 1
For B2, the kon in test [15] came to 71000 M⁻¹ s⁻¹; in test [20], 26700 M⁻¹ s⁻¹. Further, the Kd in test [16] worked out at 2300 nM; in test [20], 76.4 nM. Besides, the ka2 in [17] was 1.8e-05 1/RUs. This molecule also came in with a kd2 in [17] of 0.00036 s⁻¹. The results for the koff in test [18], in test [19] and in [20] were 0.16 s⁻¹, 0.0385 s⁻¹ and 0.00204 s⁻¹, respectively.

B3: TP009 (Fc fusion)
chain 1: DVQLVESGGGLVQPGGSLRLSCAASGLTFSTNPMYWYRQAPGKQRELVASISSRGITNYADSVKGRFTISRDNSKNTVYLQMNSLRPEDTAVYYCRLASLSSGTVYWGQGTLVTVSSDKTHTCPPCPAPEAAGGPSVFLFPPKPKDTLMISRTPEVTCVVVDVSQEDPEVQFNWYVDGVEVHNAKTKPREEQFNSTYRVVSVLTVLHQDWLNGKEYKCKVSNKGLPSSIEKTISKAKGQPREPQVYTLPPCQEEMTKNQVSLWCLVKGFYPSDIAVEWESNGQPENNYKTTPPVLDSDGSFFLYSKLTVDKSRWQEGNVFSCSVMHEALHNHYTQKSLSLSLG
chain 2: DVQLVESGGGVVQPGGSLRLSCAASGFTFRSFGMSWVRQAPGKGPEWVSSISGSGSDTLYADSVKGRFTISRDNSKNTLYLQMNSLRPEDTALYYCTIGGSLSRSSQGTLVTVSSDKTHTCPPCPAPEAAGGPSVFLFPPKPKDTLMISRTPEVTCVVVDVSQEDPEVQFNWYVDGVEVHNAKTKPREEQFNSTYRVVSVLTVLHQDWLNGKEYKCKVSNKGLPSSIEKTISKAKGQPREPQVCTLPPSQEEMTKNQVSLSCAVKGFYPSDIAVEWESNGQPENNYKTTPPVLDSDGSFFLVSKLTVDKSRWQEGNVFSCSVMHEALHNHYTQKSLSLSLG
notes: IgG4 FALA Fc (knob-in-hole); irrelevant ISVD N-terminal on chain 1, ALB23002 N-terminal on chain 2
On to B3, for which the Kd is 6.7 nM in test [1]; 21 nM in test [2]; 150 nM in test [3]; 13 nM in test [5]; 3 nM in test [6]; 15.1 nM in [8]. In addition, the Kd in test [14] was determined as 2.7 nM; in test [23] it was 23 nM. Also, the koff in test [1] was 0.0005 s⁻¹; in test [2], 0.0026 s⁻¹; in test [5], 0.002 s⁻¹; in [6] it was 0.0067 s⁻¹; in test [7] it was 0.000344 s⁻¹; in [10], 0.037 s⁻¹. Further, the dissociation rate constant (koff) in test [22] is 0.0017 s⁻¹; in test [14], 0.00037 s⁻¹. Moreover, the association rate constant (kon) in test [1] was 75000 M⁻¹ s⁻¹; in test [2] it was 130000 M⁻¹ s⁻¹; in [5], 160000 M⁻¹ s⁻¹; in test [6] it was 2.3e+06 M⁻¹ s⁻¹; in test [9] it was 240000 M⁻¹ s⁻¹; in test [12], 22800 M⁻¹ s⁻¹. Besides, the results for the on-rate (kon) in test [14] and in [24] were 140000 M⁻¹ s⁻¹ and 75000 M⁻¹ s⁻¹, respectively. Also, the ka2 in test [21] is 0.0074 1/RUs; in test [11], 0.917 1/RUs; in [13] it was 0.0013 1/RUs. The kd2 is 0.095 s⁻¹ in test [21], 10.2 s⁻¹ in test [11] and 0.018 s⁻¹ in test [13].
